From the supplement of paper PMC12042874
± gives the uncertainty stated by the source.

Assay: amyloid nucleation score (Sup35N fusion, yeast selection) (log enrichment); library NNK2; higher = more nucleation; inactive = no reads after selection
Summary of the method: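 Nucleation score: DiMSum log enrichment of output over input reads, centred on the mode score of non-aggregating sequences. Only sequences with at least 100 input reads were kept. Reads came from Illumina sequencing of plasmid inserts before and after 7 days of growth at 30°C without adenine and uracil, in psi-negative yeast expressing Sup35N fused to peptides of 20 random codons after 24 hours of induction with 100 μM copper sulfate.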

| Substance | amyloid nucleation score |
| --- | --- |
| GIFTTWNRISRRLCLRVHYP | -0.497 ± 0.34 |
| GKRYCWSLAVNRGFTDTLGV | 0.261 ± 0.46 |
| RSYLIKSLVSSLSARWIMMS | -0.03 ± 0.49 |
| LSRCWVMSQQCKKSAGVFYA | -0.026 ± 0.55 |
| ALFSIITVFSVRLVVWT | inactive |
| CLSLFTSYV | 0.415 ± 0.31 |
| IGSVGTPWE | -0.042 ± 0.45 |
| PSFTLMDVFRI | 0.701 ± 0.26 |
| YWKVCRM | 0.356 ± 0.74 |
| YSLYINLSNAGIGVYPLKPA | 7.252 ± 0.062 |
| LVNVM | 1.39 ± 0.095 |
| NVRDYRIFDL | -0.877 ± 0.78 |
| SYHVVCFVYVLVTFLLWCSH | 2.22 ± 0.14 |
| LHIDGNENRFLHRDGKRQEA | 0.245 ± 0.39 |
| VYIVHVPSQFWL | 6.37 ± 0.08 |
| ALRYVMRLY | 2.53 ± 0.11 |
| YPNSLYFRPYAFILTEMSHH | inactive |
| ILAVKHFRFMVGSKISGGSG | 2.15 ± 0.094 |
| AQNLGFHEMGLAKCCRVGLY | 0.233 ± 0.44 |
| SVSGTLFPGYCWGNGKAGHF | 1.56 ± 0.091 |
| GSTVKYWCMPGSSLLLHCVY | 0.611 ± 0.66 |
| ISETLASSVWRRCVSCGYVM | 3.93 ± 0.075 |
| VATWGDQVLRMRWAALRLCV | 5.96 ± 0.079 |
| TFMAIRSLNSSASGWATGF | 3.01 ± 0.049 |
| NPSCTRKVLVYSY | 0.359 ± 0.43 |

| Substance | amyloid nucleation score |
| --- | --- |
| YYVHQTHVSCLLAVLCPSLK | 8.901 ± 0.039 |
| VEADVYDRDVTSWRMLYLYK | 0.174 ± 0.4 |
| VGLFNVTLAFVLYGSSRLVL | 4.12 ± 0.057 |
| WNYSNRNDYELFRTLK | 0.316 ± 0.57 |
| APFLGRLEVRV | 0.563 ± 0.37 |
| VSRDIIKKVSASNRSMVSDS | 0.163 ± 0.56 |
| SMYVN | -0.384 ± 0.56 |
| TPDVLGLRHYRLTIVTYH | 1.22 ± 0.31 |
| WSANVPQWLLTRPYFDSHHN | inactive |
| RLPAFSRFG | -0.452 ± 0.37 |
| RVRERIQIYLLLSGQDQFKM | 3.6 ± 0.14 |
| HPHKS | -0.325 ± 0.76 |
| MYCLHCTTSCWSRLRLVNNF | 2.98 ± 0.16 |
| PHLFFDTFV | 3.98 ± 0.087 |
| SVFYIYWRSWLFFRSLGLFI | inactive |
| GSSVDNACQSDLPVQVSMKF | -0.478 ± 0.64 |
| GPDSLLGFMSAHNWSAKVYP | 0.209 ± 0.44 |
| CERGLFFVMY | -1.15 ± 1.1 |
| RSSQTPFWEIGSMLLSKMCA | 0.65 ± 0.42 |
| YRVRCLHWHLIFDCNKKRSK | -0.331 ± 1.1 |
| MVQPS | 0.462 ± 0.5 |
| FAFKTLVWHRGVCRFPGARL | inactive |
| VAFNGYLY | -0.89 ± 0.48 |
| YLWDTEDYMRMWAKRWEKAR | 0.259 ± 0.56 |
| ARTRLALWGLQRRGSPVFDN | 0.157 ± 0.63 |

| Substance | amyloid nucleation score |
| --- | --- |
| MNASDIKTFKL | -0.531 ± 1.1 |
| CTFSVF | -1.71 ± 0.48 |
| LWVCSCSNALTNGLWGAVSL | 5.151 ± 0.036 |
| PACTLESYRSNNFDGLFMTT | -0.609 ± 0.76 |
| RRGNWKMSFFRMLTVNP | -0.488 ± 0.55 |
| DKFMLVSCVYSDNLLVIYSG | inactive |
| YHVPSGTCATR | 0.912 ± 0.58 |
| WTYPLC | -0.744 ± 1.1 |
| YTLFLPTRNLRFLVVYGVLV | 0.009 ± 0.61 |
| RFNTCLDS | -0.005 ± 0.29 |
| VFFNLDSWSSKVCDSKLMVM | -0.373 ± 0.54 |
| HIGSVVVELLSVRLLWHCMH | 5.94 ± 0.088 |
| WVYRLMLTMLR | -0.055 ± 0.41 |
| MLRNWLCRY | 2.02 ± 0.42 |
| RLRDDENIGIFMTF | -1.15 ± 1 |
| FRYFSVP | -0.52 ± 0.36 |
| NIDSELSCDYD | -0.784 ± 0.76 |
| SAQWGREMVISARHRVPVEL | 4.92 ± 0.079 |
| YMTWQFITACMLTCSKSILS | 0.264 ± 0.49 |
| MSRKFMGVFCTSSRGSLPRG | 0.653 ± 0.47 |
| GWRKSLNWCVYVGEGASIVV | 0.517 ± 0.25 |
| CLPETLVDFWFKAHDAFNFV | inactive |
| LNFGMY | -0.772 ± 0.78 |
| VHQYDSVSAVHADCMG | -1.27 ± 0.53 |
| YFCPVPYLAPVLCRLFKVKL | -0.87 ± 1 |

| Substance | amyloid nucleation score |
| --- | --- |
| SYFMRDSTN | inactive |
| FYKHMLVTATFSLMYITQDD | -0.404 ± 0.48 |
| QVLTMNRLWVVPPAHYCVVG | 0.84 ± 0.53 |
| CLIAVNTKGRVVHVYGRTGG | 3.53 ± 0.093 |
| MVAGDKRDGG | 2.39 ± 0.07 |
| GSWLFREVMPA | -0.51 ± 0.44 |
| CDYEYGCQNKRGFRMLLKSW | inactive |
| LMHSQCSFSNELYVDSEARG | 0.093 ± 0.38 |
| CFVSNRDYDF | 0.773 ± 0.42 |
| ENCHFLGWANNGVLKCSFT | -0.153 ± 0.63 |
| RYNTYML | -1.33 ± 0.36 |
| NCNFSLEGHYCTFIKFHWTV | 3.23 ± 0.097 |
| RKCSSVLRGHTVQDVHFFSA | -0.056 ± 0.56 |
| FCVIAQYAQVPMSCWGWLES | -0.191 ± 1.1 |
| NGVCQNCR | inactive |
| VRWMITHNFRVF | inactive |
| ASASSVIAMRNRMGGLNRFC | -0.302 ± 0.24 |
| EICLHLQAYAIKQCGLLGTP | 0.407 ± 0.26 |
| YFYNGWRERARSEQCNHRT | 0.441 ± 0.43 |
| WLGYEEGG | 0.508 ± 0.62 |
| HVCCFKSQDRCYWVG | -0.447 ± 0.63 |
| LDVPARSMCFY | -0.761 ± 0.61 |
| DDTLVVLPTRYLTPIWEMH | 2.4 ± 0.18 |
| RPSFKKYFAGSSDTNGSGVC | -0.513 ± 0.64 |
| FFLLAGVLDWAYGWYYIVWK | 0.147 ± 1.1 |

| Substance | amyloid nucleation score |
| --- | --- |
| TPVSCFTCRQCLVTGLHTLR | 0.466 ± 0.26 |
| PTRVKIFFQRMCGVVAVGWS | 1.42 ± 0.39 |
| RGDRSWGVRSCSRYDAAIAG | 1.71 ± 0.38 |
| LRMMYRFGVCYVLL | 0.399 ± 0.31 |
| TVSGDTSRRSRMNFSFYMQR | -0.266 ± 1.1 |
| TVSRTVCVASYCLSSEKTSG | -0.899 ± 0.31 |
| WNVMHI | 0.358 ± 0.64 |
| LHFSICMPTGCDVPPGDKGG | inactive |
| FSLWSLERLKPIGLSSRMSG | 3.45 ± 0.16 |
| EEREFSAASPEAMELR | inactive |
| VHIMEDVMRRFCDRCTCRTW | 0.562 ± 0.44 |
| FSMLRVYHLRPDLRVFCCAF | -0.108 ± 1.1 |
| CTKDTHNRVGHLRSHVDGSL | 0.572 ± 0.8 |
| NIFEYPGYRRYVCCVGWV | 4.551 ± 0.044 |
| MSVLRSG | 0.526 ± 0.66 |
| VCFGEQT | 0 ± 0.21 |
| SNSRKMCDMGKDDNGYKGTH | -0.483 ± 1 |
| RSSLQSPWGYPKPMWLRSCA | 1.06 ± 0.33 |
| HNSCVSITSKLQCPLRTVSG | 0.252 ± 0.65 |
| FGVTHVSWIQERVTADGAER | 0.998 ± 0.39 |
| AMQVVTVLNATACEMWAMGL | 7.498 ± 0.034 |
| EGDMLILEF | -0.474 ± 1 |
| CYLYFIEYWFSEAPYFTSER | -0.959 ± 1.1 |
| RLSVTLL | -0.157 ± 0.24 |
| MFKWHYWVEHNFSTRDNICA | inactive |

| Substance | amyloid nucleation score |
| --- | --- |
| RVDCPYSGNVLTRVGNRCWA | 0.729 ± 0.25 |
| SLTFSGMP | inactive |
| ACRLISLVML | inactive |
| PQNSIPCFAIFTWAWSMKKL | inactive |
| GLYHFRVITASKSQMEGFLM | -0.018 ± 1.1 |
| LFFTFSKKFAR | 3.48 ± 0.068 |
| FFMGGMRASNMDYATSWLK | 4.3 ± 0.099 |
| YVLRQEVCIIPINSMFVNSF | 6.091 ± 0.045 |
| CTLRSLEAVLRVLIGYALRH | 0.223 ± 0.3 |
| SSTKFAHTFVHNKWVYSGFS | 2.46 ± 0.11 |
| GLFGGIHFVANLGTPPCLDE | 1.56 ± 0.31 |
| YYVSSVLWIRYYQGNRTRSW | -0.901 ± 0.44 |
| CKSSARLIDYTS | -0.682 ± 0.45 |
| DSASVRVVIADEDLSAVVRA | 1.72 ± 0.27 |
| YVNDIRSKNPALEHEGDL | -0.58 ± 0.55 |
| NSRTGTLREVHYLPDST | 5.1 ± 0.054 |
| TFKMSGINPTD | -1.19 ± 0.3 |
| FKIAGRI | inactive |
| DRLMLALGKGHGFEIGGPVL | 1.37 ± 0.39 |
| LERGENEVRWTKKLRIKFVF | -0.228 ± 1.1 |
| IGVSNLLCMFTLDPKGIQDG | 8.488 ± 0.056 |
| YVRGSDGSKKPWVYSAVGIF | -0.793 ± 1.1 |
| SKMVDLVVNPQVYCLRRVFW | 2.9 ± 0.078 |
| SCFPM | -1.67 ± 0.62 |
| PAVWVN | -0.34 ± 0.56 |

| Substance | amyloid nucleation score |
| --- | --- |
| FCSGLYHVYAD | 2.28 ± 0.15 |
| IISPVGVRMAYL | 0.176 ± 0.37 |
| SCSDMIKYHHTVELSLVSAT | 0.295 ± 1 |
| GFWEGRILG | 2.61 ± 0.22 |
| ERNCISYHKGIFDNNEC | inactive |
| GWCVHSKKDGKYCRSYTRQF | -0.136 ± 0.23 |
| MNIVVYVHLGVSAQVSMAHR | 8.407 ± 0.041 |
| EHLCPYF | 0.667 ± 0.46 |
| LGYIWLALRIVNCLDNGVPY | -1 ± 0.44 |
| HRVAVTKYATRYIPLIMLNW | -0.354 ± 0.49 |
| HKRHTLK | -0.809 ± 1.1 |
| CSEYLCGVKVLTCWFGRRYS | 0.174 ± 0.4 |
| SYSDPETFISWVLVDWCLMS | -0.753 ± 0.55 |
| TPTWESNQVL | 0.502 ± 0.65 |
| RTTGTLLMRAESALPGRVVN | 5.762 ± 0.055 |
| EGYAGVVQMALFYSWANIRL | 0.194 ± 0.62 |
| RKRRLMYLSGDNTQPFARLY | -0.686 ± 1.1 |
| VVAPTKLLFKLPMALYVFVG | -0.299 ± 0.34 |
| LSSFDSF | inactive |
| FYPVFKSMLVMAGVTRHLAR | -0.487 ± 0.26 |
| DATNQRYVPRLFHKMSITGS | 0.848 ± 0.57 |
| LVWGVP | -0.945 ± 0.76 |
| MTSFGYHMNLCH | 0.072 ± 1.1 |
